Measurements from patent US20030157712A1, “Methods for determining cell responses through EphB receptors” (priority 1997, published 2003).

How the values were obtained:
[1] = target: T1, EphB1 (Homo sapiens, UniProt P54762); experiment: EphB1 immunoprecipitation and phosphotyrosine immunoblot; format: cell-based; conditions: endothelial cells on adsorbed ligand
T1 construct: Ligand stimulation and immunoprecipitation of endogenous EphB receptors; endogenous in cells; host or cells: HRMEC (human); P19 (murine teratocarcinoma) in part of the results
T1 sequence (P54762 18-984): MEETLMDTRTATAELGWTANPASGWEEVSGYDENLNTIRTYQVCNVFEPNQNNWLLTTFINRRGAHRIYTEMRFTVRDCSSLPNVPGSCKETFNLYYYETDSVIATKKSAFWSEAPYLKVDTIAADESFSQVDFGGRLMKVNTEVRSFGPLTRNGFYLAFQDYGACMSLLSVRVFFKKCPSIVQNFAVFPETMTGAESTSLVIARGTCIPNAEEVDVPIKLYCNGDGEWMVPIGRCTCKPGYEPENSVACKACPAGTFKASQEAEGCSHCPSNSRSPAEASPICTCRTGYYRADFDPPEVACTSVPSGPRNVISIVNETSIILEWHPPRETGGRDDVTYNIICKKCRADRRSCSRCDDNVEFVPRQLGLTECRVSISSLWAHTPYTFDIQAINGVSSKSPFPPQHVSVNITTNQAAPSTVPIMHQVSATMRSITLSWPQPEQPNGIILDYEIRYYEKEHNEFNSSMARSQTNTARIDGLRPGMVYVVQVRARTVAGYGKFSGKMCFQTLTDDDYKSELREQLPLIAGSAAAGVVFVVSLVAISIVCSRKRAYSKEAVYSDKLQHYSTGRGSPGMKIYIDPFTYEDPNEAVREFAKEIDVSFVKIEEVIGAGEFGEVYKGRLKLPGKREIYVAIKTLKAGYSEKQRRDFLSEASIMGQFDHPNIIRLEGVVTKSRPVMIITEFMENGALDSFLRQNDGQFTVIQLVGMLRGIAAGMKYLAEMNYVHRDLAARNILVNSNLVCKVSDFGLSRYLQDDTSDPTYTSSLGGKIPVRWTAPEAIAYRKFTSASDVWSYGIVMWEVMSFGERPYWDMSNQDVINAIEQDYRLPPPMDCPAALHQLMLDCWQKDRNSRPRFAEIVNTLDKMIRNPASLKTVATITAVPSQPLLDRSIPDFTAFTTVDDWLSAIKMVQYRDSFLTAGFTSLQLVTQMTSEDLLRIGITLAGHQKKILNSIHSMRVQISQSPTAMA

[2] = test system: HRMEC; experiment: Cell adhesion assay (HRMEC); format: cell-based, human; conditions: 90 min after plating
Description: Cell adhesion assay. Six well plates (Falcon) were coated with thin layers of Matrigel or with 0.5 μg cm^2 fibronectin (29). Growth medium was replaced 48 h before harvest with binding medium, either DMEM (HRMEC) or ∝-MEM (P19) containing 1% bovine albumin. Cells were recovered by trypsinization (HRMEC) or vigorous tituration (P19) and washed three times with binding medium and plated at 1×10^5 cells per well. Ligands were added coincident with plating at concentrations indicated above. After 90 min, unattached cells were dislodged by applying 4 brisk slaps of the plate on a horizontal surface, and the attached cell layer was carefully washed once with PBS containing calcium and magnesium to collect the remaining unattached cells. Attached cells were collected after incubation in Dispase (Collaborative Biomedical Products). Separate fractions were recovered by centrifugation, washed once and trypan blue excluding cells counted visually using a hemocytomer. The ratio of attached to total number of cells recovered were calculated for each of three wells. Data are expressed as mean+/−SEM and are representative of three independent experiments.

[3] = test system: LMW-PTP recruitment to EphB1 and EphB2 complexes; experiment: LMW-PTP recruitment to EphB1 and EphB2 complexes (co-immunoprecipitation, immunoblot); format: cell-based, human
Description: Ligand stimulation and immunoprecipitation of endogenous EphB receptors. Primary HRMEC were used at passages 3-6, as described (12). P19 cells were cultured as recommended (ATCC, Rockville, Md.). Ninety min prior to ligand stimulation, cells (2×10^5cells/60 mm dish) were plated on Matrigel-(Collaborative Biomedical Products, Becton Dickinson, Bedford, Mass., as recommended) or fibronectin-coated (29) dishes. Ligand (ephrin-B1/Fc) or control (ORF/Fc) (30) multimers were generated by preincubation with anti-Fc at a fixed ratio of 0.1× the indicated concentrations of Fc fusion proteins [50 ng ml^−1 anti-Fc for 500 ng ml^−1 Fc fusion protein]. If not otherwise indicated, Fc fusion proteins (ephrinB1/Fc or ORF/Fc) were used at 500 ng ml^−1 in the absence or presence of preclustering anti-Fc at 50 ng ml^−1. Cells were incubated with agonists at 37° C. for 10 min, or as described in the figure legends. […] Precipitated proteins were analyzed by immunoblot (15).
It was reasoned that alternative signaling responses mediated through EphB receptors might reflect differential association of additional receptor signaling complex components. […] Accordingly, EphB1 immunoprecipitates were analyzed for LMW-PTP immunoreactivity (11,17).

B1: ephrin-B1/Fc dimers: disulfide-linked immunoglobulin Fc fusion form of ephrin-B1 (protein)
chain: LAKNLEPVSWSSLNPKFLSGKGLVIYPKIGDKLDIICPRAEAGRPYEYYKLYLVRPEQAAACSTVLDPNVLVTCNRPEQEIRFTIKFQEFSPNYMGLEFKKHHDYYITSTSNGSLEGLENREGGVCRTRTMKIIMKVGQDPNAVTPEQLTTSRPSKEADNTVKMATQAPGSRGSLGDSDGKHETVNQEEKSGPGASGGSSGDPDGFFNSK
modifications: left off: a dimerising Fc or GST
EphB1 receptor activation at densities greater than 300 ng/cm^2 [1]: did not show a decrement
adsorption densities stimulating EphB1 receptor activation ([1]; phosphotyrosine immunoblot): greater than 100 ng/cm^2
HRMEC attachment to Matrigel- and fibronectin-coated surfaces [2]: did not
recruitment of 18 kDa tyrosine phosphoprotein (LMW-PTP) to EphB1 and EphB2 immunoprecipitates [3]: not
